System: expanded human T cells from three healthy donors
Test: T cell adjuvant high throughput screen, total viable CD3+ cell count
Format: cell-based
Details: 62.5 IU/ml-1000 IU/ml; 6 days
Protocol: Cells were expanded from PBMC derived from Ficoll gradient separation from three healthy donor's apheresis material. […] Cells were next seeded into gas permeable 100M culture vessels and expanded for 7-14 days to achieve a large bank of T cells, and cryopreserved. […] Half of wells were additionally supplemented with 50 ng/mL OKT3, a human anti-CD3 monoclonal antibody. In total, 15 test adjuvant agents were tested for their impact on cell viability in the presence and absence of anti-CD3 activation (see Table E3). Cells were cultured for 6 days total, including a 50% medium exchange on culture day 3, and monitored for total viable CD3+ cell count.
Total viable CD3+ cell count for cells grown in the absence and presence of OKT3 stimulation are shown in FIGS. 27A-C and FIGS. 28A-C, respectively. The results shown are for the following concentrations of adjuvant: 10 μg/mL for tested antibodies (Tavolixizumab, Oxelumab, Ipilimumab, Tocilizumab, Urelumab, Pembrolizumab, Varlilumab, anti-GITR MK-1248, anto-human FasL); 25 μM for Z-VAD-FMK pan-caspase inhibitor; 250 nM for HSP inhibitor NVP-HSP990; and 1000 IU/mL for cytokine (IL-7, IL-15 or IL-21).

B1: IL-7: recombinant cytokine tested as T cell adjuvant (protein, UniProt P13232 26-177, looked up)
Interleukin-7: DCDIEGKDGKQYESVLMVSIDQLLDSMKEIGSNCLNNEFNFFKRHICDANKEGMFLFRAARKLRQFLKMNSTGDFDLHLLKVSEGTTILLNCTGQVKGRKPAALGEAQPTKSLEENKSLKEQKKLNDLCFLKRLLQEIKTCWNKILMGTKEH
dose response, cell number: cell number increased with increasing concentration
